In publication doi:10.1101/2022.05.07.491029:

Legend:
[1] = target: HSV-1 gD-Sm (herpes simplex virus 1 (strain KOS)) (UniProt Q69091); assay: split reporter
[2] = target: HSV-1 gB-Sm (herpes simplex virus 1 (strain KOS)) (UniProt P06437); assay: split reporter

Sequence of UniProt Q69091 (Q69091 26-394): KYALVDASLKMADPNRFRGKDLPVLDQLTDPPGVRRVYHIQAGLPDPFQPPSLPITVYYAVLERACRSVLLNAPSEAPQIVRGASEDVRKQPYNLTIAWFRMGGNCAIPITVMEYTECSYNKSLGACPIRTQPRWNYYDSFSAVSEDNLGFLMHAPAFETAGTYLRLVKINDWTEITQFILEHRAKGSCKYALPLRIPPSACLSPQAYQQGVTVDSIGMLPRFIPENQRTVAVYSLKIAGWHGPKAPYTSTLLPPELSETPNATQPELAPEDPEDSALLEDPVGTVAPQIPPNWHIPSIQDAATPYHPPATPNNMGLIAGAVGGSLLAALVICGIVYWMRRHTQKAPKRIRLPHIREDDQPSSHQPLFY

For “HSV-1 gH-Lg expressed without gL (from UniProt P06477 19-838) (natural protein)”, the fold reduction of the NanoBiT interaction in the absence of gL against gH/gL [1] was 6 fold and the fold reduction of the NanoBiT interaction in the absence of gL against gH/gL [2] was 2 fold.
